From patent US11397178B2, “Method of predicting progression of idiopathic pulmonary fibrosis and monitoring of therapeutic efficacy” (Cedars-Sinai Medical Center, priority 2016, dated 2022) come the findings set out here.

“Also recorded” adds a separate entry of the source.

One series has as its system EphA3 expressing cells. Description: IPF explant cell challenged NOD/SCID mice treated with anti-EphA3 antibody. It is filed as in vivo. Particulars: listed as afucosylated anti-EphA3 antibody. An excerpt:
IHC analysis indicated the presence of these cells near honeycombing cysts, in the interstitium and their expansion in IPF lung biopsies and explants relative to normal lungs.

Series [1] concerns murine IL-2, IL-10, IL-12-p70, and TNFα. Nature of the series: Bioplex analysis of mouse cytokines in BAL of humanized NSG mice. Particulars: days 0 to 35 or days 35 to 63. Type of series: in vivo. The procedure:
(A-E) Murine IL-2 (A), IL-10 (B), IL12-p70 (C), IFNγ, and TNFα in the BAL from non-humanized and humanized NSG mice treated with KB004 or KB243 from days 0 to 35, or from days 35 to 63 after IPF cell injection. Mouse cytokines were measured using Bioplex and data shown are mean±sem; n=5-10/group. ****p≤0.0001
Lungs in non-humanized and humanized NSG mice were washed using 1 ml of saline solution, and the resulting BAL was centrifuged to remove cells and the supernatants were stored at −80° C. until analysis. Mouse cytokines in the BAL were measured using predesigned Bioplex assays (Bio-Rad) as recommended by the manufacturer, […]

For another series, the system named is CCR10+ cells. Nature of the series: Humanized NSG-GFP mice: KB004 / KB243 treatment (GFP IHC, flow cytometry). It is filed as in vivo, human IPF cells in NSG-GFP mice. Particulars: 5 mg/kg i.p. twice a week for 5 weeks, day 35. How it is done:
NSG-GFP mice. (A) IPF cells were injected intravenously into NSG-GFP mice, and 2 hours later groups of mice received either 5 mg/kg of KB004 (an afucosylated anti-EphA3 mAb) or KB243 (an isotype control) via intraperitoneal injection. Both groups of mice were injected twice a week with the antibodies for 5 weeks after which lungs and spleen were collected for histological and/or flow cytometric analysis. (B-C) Depicted are representative images of GFP-stained NSG mouse lung (red indicates the presence of transgenic GFP mouse cells) at day 35 after IPF lung injection in both the KB243 (B) and KB004 (C) treatment groups. (D) Flow cytometric dot plots depicting GFP^− staining for human-CD45, CCR10 and/or EpCAM proteins. Representative dot plots for (from left to right) GFP^− cells expressing CD45, CD45, and CCR10 or CCR10 alone in humanized NSG-GFP mice treated either with KB243 (top) or KB004 (bottom) antibodies are shown. (E-F) The average number of GFP^− CD45^+ CCR10^+ (E) and GFP^− Lin^− CCR10^+ (F) cells in non-humanized and humanized NSG mice treated with either KB243 or KB004. Data shown are mean±sem n=4-5/group. *p≤0.05
Six to eight-week old, female, pathogen free NOD Cg-Prkdc^SCID IL2rg^Tm1wil Szi (NSG) or NOD.Cg-Prkdc^SCID IL2rg^tm1Wil Tg(CAG-EGFP) 10sb/SzJ (NSG-GFP) were purchased from Jackson Laboratories and housed in Cedars-Sinai Medical Center's high isolation animal rooms. […] All NSG groups were monitored daily and mice were sacrificed if there is evidence for morbidity such as weight loss of more than 20%, loss of fur, paralysis and/or lack of responsiveness when handled.
Murine lung cellular suspensions were generated using a mouse lung dissociation kit, C-tubes, and a GentleMacs dissociator (Miltenyi Biotech). […] Unstained, isotype controls, fluorescent minus one controls and staining in non-humanized murine lung and spleen suspensions were utilized to gate out any non-specific antibody binding and background fluorescence. […]
On the technique in general: In flow cytometry, cells or beads pass a laser one at a time.

B1: KB004: afucosylated anti-EphA3 mAb supplied by Kalobios; targets EphA3+ cells via antibody-dependent cell-mediated cytotoxicity (ADCC) (antibody, chains of the INN, looked up, V domains shown)
VH: QVQLVQSGAEVKKPGASVKVSCKASGYTFTGYWMNWVRQAPGQGLEWMGDIYPGSGNTNYDEKFQGRVTMTRDTSISTAYMELSRLRSDDTAVYYCARGGYYEDFDSWGQGTTVTVSS
VL: DIQMTQSPSFLSASVGDRVTITCRASQGIISYLAWYQQKPEKAPKRLIYAASSLQSGVPSRFSGSGSGTEFTLTISSLQPEDFATYYCGQYANYPYTFGQGTKLEIK
On to B1, for which the “fibrotic response / lung remodeling” value with EphA3 expressing cells was “ameliorated the fibrotic response; also recorded: ameliorated lung remodeling”. In addition, in series [1], the “inflammation in the mouse lung (BAL murine cytokines)” value was “neither KB243 or KB004 treatments in humanized NSG mice evoked inflammation”. The “GFP cells in lung by IHC, KB004 compared with KB243” value with CCR10+ cells is recorded as “fewer GFP cells”. For the same molecule, in the series on CCR10+ cells (flow cytometry), the “number of CD45+ CCR10+ cells compared with KB243 group” value was “significantly reduced” and the “number of Lin- CCR10+ cells compared with KB243 group” value was “significantly reduced”.
